B1: Fc-tagged human NKG2D (Fc fusion)
chain: IWSAVFLNSLFNQEVQIPLTESYCGPCPKNWICYKNNCYQFFDESKNWYESQASCMSQNASLLKVYSKEDQDLLKLVKSYHWMGLVHIPTNGSWQWEDGSILSPNLLTIIEMQKGDCALYASSFKGYIENCSTPNTYICMQRTV

Assays:
Fc-tagged human NKG2D = molecular target: B1; experiment: SPR
MICB = experiment: SPR

Row | Kd (Fc-tagged human NKG2D) [nM] | Kd (MICB) [nM] | Binder
1 | 83.2 | – | human MICA (MHC class I polypeptide-related sequence A), soluble recombinant (ligand) EPHSLRYNLTVLSWDGSVQSGFLTEVHLDGQPFLRCDRQKCRAKPQGQWAEDVLGNKTWDRETRDLTGNGKDLRMTLAHIKDQKEGLHSLQEIRVCEIHEDNSTRSSQHFYYDGELFLSQNLETKEWTMPQSSRAQTLAMNVRNFLKEDAMKTKTHYHAMHADCLQELRRYLKSGVVLRRTVPPMVNVTRSEASEGNITVTCRASGFYPWNITLSWRQDGVSLSHDTQQWGDVLPDGNGTYQTWVATRICQGEEQRFTCYMEHSGNHSTHPVPSGKVLVLQSHW
2 | 836 | – | human ULBP3 (ligand) DAHSLWYNFTIIHLPRHGQQWCEVQSQVDQKNFLSYDCGSDKVLSMGHLEEQLYATDAWGKQLEMLREVGQRLRLELADTELEDFTPSGPLTLQVRMSCECEADGYIRGSWQFSFDGRKFLLFDSNNRKWTVVHAGARRMKEKWEKDSGLTTFFKMVSMRDCKSWLRDFLMHRKKRLEPTAPPTMAPG
3 | 2.69 | – | human ULBP6-02 extracellular domain (residues R26-G218) (ligand, glycosylation of residues N68 and N82 (in the crystal structure)) RRDDPHSLCYDITVIPKFRPGPRWCAVQGQVDEKTFLHYDCGNKTVTPVSPLGKKLNVTMAWKAQNPVLREVVDILTEQLLDIQLENYTPKEPLTLQARMSCEQKAEGHSSGSWQFSIDGQTFLLFDSEKRMWTTVHPGARKMKEKWENDKDVAMSFHYISMGDCIGWLEDFLMGMDSTLEPSAGAPLAMSSG
4 | 42.7 | – | human ULBP6-01 (residues G26-G218) (ligand) GRDDPHSLCYDITVIPKFRPGPRWCAVQGQVDEKTFLHYDCGNKTVTPVSPLGKKLNVTTAWKAQNPVLREVVDILTEQLRDIQLENYTPKEPLTLQARMSCEQKAEGHSSGSWQFSIDGQIFLLFDSEKRMWTTVHPGARKMKEKWENDKDVAMSFHYISMGDCIGWLEDFLMGMDSTLEPSAGAPLAMSSG
5 | – | 105 | B1
6 | 93.4 | – | human ULBP5 (ligand) GLADPHSLCYDITVIPKFRPGPRWCAVQGQVDEKTFLHYDCGSKTVTPVSPLGKKLNVTTAWKAQNPVLREVVDILTEQLLDIQLENYIPKEPLTLQARMSCEQKAEGHGSGSWQLSFDGQIFLLFDSENRMWTTVHPGARKMKEKWENDKDMTMSFHYISMGDCTGWLEDFLMGMDSTLEPSAGAPPTMSSG
7 | 138 | – | human ULBP1 (ligand) GWVDTHCLCYDFIITPKSRPEPQWCEVQGLVDERPFLHYDCVNHKAKAFASLGKKVNVTKTWEEQTETLRDVVDFLKGQLLDIQVENLIPIEPLTLQARMSCEHEAHGHGRGSWQFLFNGQKFLLFDSNNRKWTALHPGAKKMTEKWEKNRDVTMFFQKISLGDCKMWLEEFLMYWEQMLDPTKPPSLAPG
8 | 262 | – | human ULBP2 (ligand) GRADPHSLCYDITVIPKFRPGPRWCAVQGQVDEKTFLHYDCGNKTVTPVSPLGKKLNVTTAWKAQNPVLREVVDILTEQLRDIQLENYTPKEPLTLQARMSCEQKAEGHSSGSWQFSFDGQIFLLFDSEKRMWTTVHPGARKMKEKWENDKVVAMSFHYFSMGDCIGWLEDFLMGMDSTLEPSAGAPLAMSS
